A short description of this data set: yeast display, Sf9 membrane polyspecificity reagent, FACS + sequencing; frameworks hold sequencing errors. An outline of the steps:
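Nanobodies came from a synthetic yeast display library in Saccharomyces cerevisiae BJ5465, induced with galactose for 36–48 hours and stained for 1 hour at 4 °C with 10% biotinylated, detergent-solubilized Sf9 membrane reagent. Cells were enriched on streptavidin microbeads and then FACS-sorted, with low and high (top ~1%) gates set on anti-HA fluorescence for expression and streptavidin fluorescence for reagent binding. Each polyreactivity label reflects the gate a clone came from. Genes were amplified by colony PCR, sequenced by MiSeq 2 × 250 and filtered by CDR length.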
With “QVQLVESGGGLFQAGGSLRLSCAASGSTFVYNDMGWYRKATGKERELVAYISTSGGSTYYADSVKGRFTISRDNAKNTVYLQMNSLKPEDTAVYYCNAKRSGPWFLHVPVYYWGQGTQVTVSS”, the “polyreactivity (PSR sort gate)” value is on record as “low polyreactivity”.

Turning to “QVQLVESGGGLVQAGGSLRLSCAASGRTFNRNAMGWYRQAPGKERELVASITSRGGSTYYADSVKGRFTISRDNAKNTVYLQMNSLKPEDTAVYYCNATPKFFGRYWGYDYWGQGTQVTVSS”, the “polyreactivity (PSR sort gate)” value was “high polyreactivity”.

As to “QVQLVESGGGLVQAGGSLRLSCAASGSIFSSYAMGWYRQAPGKEREFVAAINNNDGGTDYADSVKGRFTISRDNAKNTVYLQMNSLKPEDTAVYYCAADYTRYVQTTYDYWGQGTQVTVSS”, the “polyreactivity (PSR sort gate)” value is “low polyreactivity”.

“QVQLVESGGGLVQAGGSLRLSCAASGRIFRTNAQGWYRQAPGKERELVAAITRGGTTNYADSVKGRFTISRDNAKNTVYLQMNSLKPEDTAVYYCATRLSGWRYYLARYDYWGQGTQVTVSS”: the “polyreactivity (PSR sort gate)” value is reported as “low polyreactivity”.

As for “QVQLVESGGGLVKAGGSLRLSCAASGSTFERYAMGWYRQAPGKERELVAAINWSGGGTYYADSVKGRFTISRDNAKNTVYFQMNSLKPEDTAVYYCAADSGTVVFSLWWYEYYYWGQGTQVTVSS”, the “polyreactivity (PSR sort gate)” value was “low polyreactivity”.

With “QVQLVQSGGGLLQAGGSLRLSCAASGSINIYNDMGWNRQATGKERELVAAITSSGGSTYYADSVKGGFTISRDNGKNTVYLQMNSLKPEDTAVYYCAADYVDHKVWYDYWGHGTQVTVSS”, the “polyreactivity (PSR sort gate)” value is recorded as “low polyreactivity”.

For the sequence “QVQLVESGGGLVQAGGSLRLSCAASGFIFRLYTMGLYRQAPGKERELVARITRGDSTNYADSVKGRFTISRDNAQNTVYLQMNCLYPEDTAVYYCAKLHRGLPYYSFYRGYYYWGQVTQVTVSS”, the “polyreactivity (PSR sort gate)” value is given as “low polyreactivity”.

Regarding “QVQLVESGGGLVQAGGSLRLSCAASGSTFDYYAMGWYRQAPGKERDLVAGITSDGSTDYADSVKGRFTISRDNAKNTVYLQMNSLKPEDTAVYYCAVDGDPVFYTTYYYSYYYWGQGTQVTVSS”, the “polyreactivity (PSR sort gate)” value is reported as “low polyreactivity”.

With “QVQLVESGGGLVQAGGSLRLSCAASGFTFTTYAMGWYRQAPGKEREFVAAITKRGGRTYYADSVKGRFTISRDYAKNTVYVQMNSLKPEDTAVYYCNKVVHSFPFPYRYDMDYWGQGTQVTVSS”, the “polyreactivity (PSR sort gate)” value was “high polyreactivity”.

“QVQLVESGGGLDQAGGSLRLSCAASGSTFGYYAMGWYREAPGKERELVASITSDGSTNYADSVKGRFTISRDNAKNTVYLQMNSLKPEDTAVYYCAAYVWRYWHEYDYWGQGTLVTVSS”: the “polyreactivity (PSR sort gate)” value is “low polyreactivity”.

As to “QVQLVESGGGLVQAGGSLRFSCAASGSTFAYNDMGWYRQAPGKERELVADIRSGGNTNYADSVKGRFTISRDNAKNTVYFQMNSLKPEDTAVYYCATDGYRIDVYHPDYRYDYWGQGTQVTVSS”, the “polyreactivity (PSR sort gate)” value was “low polyreactivity”.

For the sequence “QVQLVESGGGLVQAGGRLSLICAASGSIFPINAMGWYRQAPGKERELVADITSGGSTNYADSVKGRFTISRDNAKNTVYLQMNSLKPEDTAVYYCAADWRYWRWAFDYWGQGTQVTVSS”, the “polyreactivity (PSR sort gate)” value is recorded as “high polyreactivity”.

On to “QVQLVESGGGLVQAGGSLRLSCAAYGSTFIAYAMGWYRQAPGKERELVAAITRGGSTNYADSVKGRFTISRDNAKNTVYLQMNRLKPEDTAVYYCAADRSWGYWGRSRYDYWGQGTQVTVSS”, for which the “polyreactivity (PSR sort gate)” value is given as “high polyreactivity”.

Turning to “QVPLVESVGGLVQAGGSLRISCAASGSTLRGYAMGWYRKAPGKERELVAAISWRGGSTYYADSVKGRFTISRDNAKNTVYLQMNSLKPEDTAVYYCNALVAGHKYYTVTSKYDYWGQGTQLTVSS”, the “polyreactivity (PSR sort gate)” value is given as “high polyreactivity”.

Consider “QVQLVESGGGLVQAGGSLRLSCAASGSIFVVNGMGWYRQAPGKERELVAAITGDGTTYYADSVKGRFTISRDNAKNTVYLQMNSLKPEDSAVYYCAALFTPALSEYDYWGQGTQVTVSS”, for which the “polyreactivity (PSR sort gate)” value is listed as “high polyreactivity”.

On to “QVQLVESGGGLLQAGGSLRLSCAASGRIFAQYAMGWYRQAPGKEREFDAGISTTGGSTYYADSVKGRFTISRDNAKNTVYLQMNSLKPEETAVYYCAADRRDRSPFYYWGQGTQVTVSS”, for which the “polyreactivity (PSR sort gate)” value is recorded as “high polyreactivity”.

Take “QVQLVESGGGLVQAGGSLRLSCAASGSIFGTYAMGWYRQAPGKERELVAAISWSDGSTYYADSVKGRFTISRDNAKNTVYLQMNSLKPEDTAVYYCAKVYRSIGPNVSRYGLSYYYWGQGSQVTVSS”: the “polyreactivity (PSR sort gate)” value is “low polyreactivity”.

As for “QVQLVESGGGLVQAGGSLRLSCAASGFIFKGNAMGWYRQAPGKERELVAAITNRGGGTYYADSVKGRFTISRDNAKNTVYLQMNSLKPEDTAVYYCAKAYTRPFHPYDYWGQGTQVTVSS”, the “polyreactivity (PSR sort gate)” value was “high polyreactivity”.

As for “QVQLVESGGGLVQAGGSLRLSCAASGLTYYYYAKGWYRQAPGKERDFVAAISRSGGTTYYADSVKGRFTISRDNAKNTDYLQMNSLKPEDTAVYYCNAQWWRYRPSQVIFDYWGQGTQVNVSS”, the “polyreactivity (PSR sort gate)” value is on record as “high polyreactivity”.

“QVQLVESGGGLVQAGGSLRLSCAASGRIFHYNAMGWYRQAPGKERELVARITWTGGSTYYADSVKGRFTISRDNAKNTVYLQMNSLKPEDNAVYYCAAKWSYTKGRYYYWGQGTQVTVSS”: the “polyreactivity (PSR sort gate)” value is given as “high polyreactivity”.

Consider “QDQLVESGGGLVQAGGSLRLSCAASGLTFTYYAMGWYRQAPGKERELVAAMTWNGGRTYYADSVKGRFTISRDNAKNTVYLLMNSLKPEDTAVYYCNARYILSSSGFGYWRQGTQVTVSS”, for which the “polyreactivity (PSR sort gate)” value is given as “high polyreactivity”.

Regarding “QVQLVESGGGLVQAGGSLRLSCAASGRIFYYAMGWYRPAPGKERELVAAISRSGGSTYYADSVKGRFTISRDNAKNTVYLQMNSLKPEDTAVYYCAAVIYIYPISKRDYWGQGTQVTVSS”, the “polyreactivity (PSR sort gate)” value is reported as “low polyreactivity”.

As to “QVQLVESGGGLVQAGGSLRLSCAASGSIFTHNAMGWYRQAHGKERELVAAISSGGSTNYADSVKGRFTISRDNAKNTVYLQMNSLKPEDTAVYYCAKSIDGWYWRRRRYDYWGQGTQVTVSS”, the “polyreactivity (PSR sort gate)” value is on record as “low polyreactivity”.

Consider “QVQLVESGGGLVQAGGRLRLSCAASGRTFYWYAMGWYRQAPGKETELVAAISSGGSTYYADSVKGRFTISRDNAKNTVYLQMNSLKPEDTAVYYCAAVTPSGAHRSAYHPISDYWGQGTQVTVSS”, for which the “polyreactivity (PSR sort gate)” value was “low polyreactivity”.

For “QVQLVESGGGLVQAGGSLRLSCAASGNTFGFNAMGWYTQAPGKERELVAAIRRGSGRTYYADSVKGRFTISRDNAKNTVYLQMNSLKPEDTAVYYCAAAPTTGKRPGYYYWGLGTQVTVSS”, the “polyreactivity (PSR sort gate)” value is on record as “high polyreactivity”.

As to “QVQLVESGGGLGQAGGSLRLSCAASGSIFYSYAMGSYRQATGKERELVAAINWSGGSTYYADSVKGRFTISRDNAKNTVSLLMNSLKPEDTAVYYCAAGPGDSGDDYWGQCTQVTVSS”, the “polyreactivity (PSR sort gate)” value is listed as “low polyreactivity”.

For the sequence “QVQLVESGGGLVQAGGSLRLSCAASASNIIGYAMGWYRQAPGKERELVAAITSGSITNYADSVKGRFTISRDTAKNTVYLQMNSLKPEDTAVYYCNADVNFIDDDYWGQGTQVTVSS”, the “polyreactivity (PSR sort gate)” value is recorded as “low polyreactivity”.

For the sequence “QVQLVESGGGLVQAGGSLRLSCAASGLTFRINTMGWYRQAPGKERELVASISKSGSSTYYADSVKGRFTISRDNAKNTVYLQMNSLKPEDTAVYYCAARTRTLYVTYYSWGQGTQVTVSS”, the “polyreactivity (PSR sort gate)” value was “high polyreactivity”.

Regarding “QVQLVESGGGLVQAGGSLRLSCAASGFTFSINTMGWYRQAPGKEREFVAGISRSGGSTYYADSVKGRFTISRDNAKNTVYLQMNSLKPEDTAVYYCLKYYQGYDYWGQGTQVTVSS”, the “polyreactivity (PSR sort gate)” value is listed as “high polyreactivity”.

For “QVQLVESGGGLVQAGGSLRLSCAASGLIFYKYAMGWYRQAPGKERELVAAITRGGGSTSYADSVKGRFTISRDNAKNTVYLQMNCLKPEDTAVYYCNAAPYTRALQGEFDYWGQGTQVTVSS”, the “polyreactivity (PSR sort gate)” value is listed as “high polyreactivity”.
